Measured values: patent US20040014649A1 (RIGEL PHARMACEUTICALS, published 2004)

Legend:
[1] = molecular target: T1, human B-cell associated protein-37 (human BAP-37) (human, UniProt O35129 1-299 (mouse entry), limits assumed); assay: cell-based or functional assay
[2] = molecular target: T1, human B-cell associated protein-37 …; assay: cell-based or functional assay; remark: listed apart in the source

T1 sequence (O35129 whole entry): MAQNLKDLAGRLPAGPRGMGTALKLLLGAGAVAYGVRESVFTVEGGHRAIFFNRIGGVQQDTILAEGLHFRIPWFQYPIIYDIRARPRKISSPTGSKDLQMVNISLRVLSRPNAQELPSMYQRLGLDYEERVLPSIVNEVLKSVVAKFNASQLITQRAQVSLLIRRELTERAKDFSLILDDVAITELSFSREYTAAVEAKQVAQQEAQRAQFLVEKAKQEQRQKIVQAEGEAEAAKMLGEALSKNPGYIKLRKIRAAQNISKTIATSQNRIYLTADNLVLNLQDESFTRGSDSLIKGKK

| endogenous epsilon inhibition ratio (TAQMAN quantitative PCR, +IL-4/+Dox to +IL-4/-Dox) [1] | Reporter Ratio (A5T4 reporter line, IL-4 induced germline epsilon transcription) [2] | Binder |
| --- | --- | --- |
| 2.15 | 1.39 | TGVHVELQINRSIMHYISSP [peptide CL08wt] |
| – | 1.17 | TGAAVELQINRSIMHYISSP [peptide CL08VH] |
| – | 1.6 | TGVHVELQIAASIMHYISSP [peptide CL08NR] |
